Patent US20250144275A1, “SYSTEM AND METHOD FOR COATING MEDICAL CONDUIT WITH PARTICLES AND USE THEREOF” (UNIVERSITY OF PITTSBURGH - OF THE COMMONWEALTH SYSTEM OF …, priority 2022, published 2025)

System: facial nerve of Lewis rats
Experiment: Histological processing of muscle, mystacial pad and buccal branch nerve
Assay type: in vivo
Conditions: mystacial pad, qualitative, 12-week endpoint
Method: This study was performed on the facial nerve of Lewis rats (Charles River, Wilmington, MA). Institutional approval was obtained before performing the study, and all animal procedures and housing were performed under the guidelines of the University of Pittsburgh Institutional Animal Care and Use Committee and in compliance with animal experimentation ethics policies.
Surgical procedures. Rats were placed under general anesthesia and maintained with Isoflurane. Preauricular/buccal incision lines were marked (FIG. 8A) and the nerve branches were exposed (FIG. 8B). A 5 mm segment of the marginal mandibular branch was removed to prevent cross-innervation contribution to the whisker movement^41. The buccal branch was then transected, and the resultant 2 mm defect was primarily repaired with 9-0 nylon sutures. […]
Histological processing. […] For the muscles, the mean muscle fiber pixel area was calculated from brightfield staining. […] Cross-sections of the main buccal branch distal to the injury site were analyzed for the number of axons. For S100, sections of the nerve distal and proximal to the transection and repair site were quantified separately and the ratio was used for comparison. All samples were blinded before quantification.

B1: GDNF: Recombinant human GDNF protein (R&D Systems), active agent of the microspheres (protein, UniProt P39905 78-211, looked up)
Glial cell line-derived …: SPDKQMAVLPRRERNRQAAAANPENSRGKGRRGQRGKNRGCVLTAIHLNVTDLGLGYETKEELIFRYCSGSCDAAETTYDKILKNLSRNRRLVSDKVGQACCRPIAFDDDLSFLDDNLVYHILRKHSAKRCGCI
modifications: in microspheres
local adverse effects on whisker pad and intrinsic vibrissae muscles (morphology): no local adverse effects
